The values that follow come from paper PMC9061753, “Mre11-Rad50 oligomerization promotes DNA double-strand break repair” (Nature Communications, 2022).

For data set [1], the target named is T1, Mre11-Rad50 (MRwt) (S. cerevisiae, UniProt P32829;P12753 1-692;1-1312). Kind of data set: mass photometry; 25 mM KCl; Oligo EMSA: 25 mM Tris acetate pH 7.5, 1 mM DTT, 0.25 mg/ml BSA, 5 mM Mg acetate, 1 mM ATPgS, 30 mM NaCl, 30 C 15 min, 100 nM bp DNA; plasmid EMSA: 80 mM KCl, plus 1 mM MnCl2, 30 C 1 h; mass photometry 25 mM KCl. The following applies: protein: recombinant; tags: Mre11-6xHis; Rad50 untagged; chain copies: 2;2; bottom as printed is a circular permutation of the complement of top (possible printing error); stated 73 bp.
T1 sequence (P32829 whole entry, one chain of several): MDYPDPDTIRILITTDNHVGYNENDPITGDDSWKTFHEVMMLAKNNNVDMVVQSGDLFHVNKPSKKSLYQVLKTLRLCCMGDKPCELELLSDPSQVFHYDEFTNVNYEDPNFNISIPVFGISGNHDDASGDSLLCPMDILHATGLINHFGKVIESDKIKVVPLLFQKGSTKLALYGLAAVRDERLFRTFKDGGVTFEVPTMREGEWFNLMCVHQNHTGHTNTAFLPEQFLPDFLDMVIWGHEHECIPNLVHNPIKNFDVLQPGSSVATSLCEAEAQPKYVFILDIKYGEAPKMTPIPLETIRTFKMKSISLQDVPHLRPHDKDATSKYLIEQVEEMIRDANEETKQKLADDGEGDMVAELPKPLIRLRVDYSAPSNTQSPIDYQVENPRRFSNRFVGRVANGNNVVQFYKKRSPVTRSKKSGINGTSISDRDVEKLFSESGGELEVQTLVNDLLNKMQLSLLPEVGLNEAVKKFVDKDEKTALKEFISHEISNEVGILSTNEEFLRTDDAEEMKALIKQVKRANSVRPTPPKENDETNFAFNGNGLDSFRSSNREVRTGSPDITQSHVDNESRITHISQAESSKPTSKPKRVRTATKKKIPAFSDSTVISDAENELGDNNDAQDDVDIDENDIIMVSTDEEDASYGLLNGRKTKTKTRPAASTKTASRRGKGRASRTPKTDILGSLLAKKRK

Data set [2] has as its target T2, MRho (S. cerevisiae, UniProt P32829;P12753 1-692;1-1312, N121A;D124N;Rad50:). Kind of data set: mass photometry; 25 mM KCl; two dimers per DNA detected; Oligo EMSA: 25 mM Tris acetate pH 7.5, 1 mM DTT, 0.25 mg/ml BSA, 5 mM Mg acetate, 1 mM ATPgS, 30 mM NaCl, 30 C 15 min, 100 nM bp DNA; plasmid EMSA: 80 mM KCl, plus 1 mM MnCl2, 30 C 1 h; mass photometry 25 mM KCl. The following applies: protein: recombinant; tags: Mre11-6xHis; Rad50 untagged; chain copies: 2;2; bottom as printed is a circular permutation of the complement of top (possible printing error); stated 73 bp. A general note: In EMSA bound probe runs differently from free probe, usually more slowly.

The target in data set [3] is Mre11-Rad50-Xrs2 (MRX) (S. cerevisiae, UniProt P32829;P12753;P33301 1-692;1-1312;1-854). Kind of data set: mass photometry; 25 mM KCl; Oligo EMSA: 25 mM Tris acetate pH 7.5, 1 mM DTT, 0.25 mg/ml BSA, 5 mM Mg acetate, 1 mM ATPgS, 30 mM NaCl, 30 C 15 min, 100 nM bp DNA; plasmid EMSA: 80 mM KCl, plus 1 mM MnCl2, 30 C 1 h; mass photometry 25 mM KCl. The following applies: protein: recombinant; tags: His-Mre11; Rad50 untagged; Xrs2-FLAG; chain copies: 2;2;1; blunt.
Mre11-Rad50-Xrs2 (MRX), sequence (P32829 whole entry, chain 1 of 2): as the sequence (P32829 whole entry, one chain of several) above
Mre11-Rad50-Xrs2 (MRX), sequence (P33301 whole entry, chain 3 of 2): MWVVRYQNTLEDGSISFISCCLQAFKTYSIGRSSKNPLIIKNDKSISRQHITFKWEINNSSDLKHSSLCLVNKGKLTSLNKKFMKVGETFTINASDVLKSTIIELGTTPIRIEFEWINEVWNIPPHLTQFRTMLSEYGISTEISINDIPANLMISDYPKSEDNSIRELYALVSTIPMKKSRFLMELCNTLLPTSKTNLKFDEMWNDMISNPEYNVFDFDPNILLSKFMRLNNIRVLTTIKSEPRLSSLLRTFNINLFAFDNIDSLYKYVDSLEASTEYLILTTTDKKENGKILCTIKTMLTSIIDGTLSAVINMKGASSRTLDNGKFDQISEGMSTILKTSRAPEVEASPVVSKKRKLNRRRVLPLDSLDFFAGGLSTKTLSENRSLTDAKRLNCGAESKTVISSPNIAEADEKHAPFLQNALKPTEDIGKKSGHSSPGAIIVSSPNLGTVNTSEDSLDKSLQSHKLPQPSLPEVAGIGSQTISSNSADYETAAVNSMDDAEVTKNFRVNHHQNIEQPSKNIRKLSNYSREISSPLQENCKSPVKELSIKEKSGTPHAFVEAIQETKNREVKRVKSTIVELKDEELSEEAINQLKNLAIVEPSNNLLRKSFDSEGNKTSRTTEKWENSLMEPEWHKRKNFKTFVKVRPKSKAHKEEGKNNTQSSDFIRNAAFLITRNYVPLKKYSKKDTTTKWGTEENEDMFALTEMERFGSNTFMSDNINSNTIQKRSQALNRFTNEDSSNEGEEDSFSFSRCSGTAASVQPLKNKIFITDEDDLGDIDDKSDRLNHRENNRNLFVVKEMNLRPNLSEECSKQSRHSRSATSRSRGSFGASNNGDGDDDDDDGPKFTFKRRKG

Data set [4] concerns the target T2, MRho. The description is as above. The following applies: protein: recombinant, tags: Mre11-6xHis, Rad50 untagged, chain copies: 2;2.
For data set [5], the target named is T1, Mre11-Rad50 (MRwt). Kind of data set: mass photometry; 25 mM KCl; two dimers per DNA detected; Oligo EMSA: 25 mM Tris acetate pH 7.5, 1 mM DTT, 0.25 mg/ml BSA, 5 mM Mg acetate, 1 mM ATPgS, 30 mM NaCl, 30 C 15 min, 100 nM bp DNA; plasmid EMSA: 80 mM KCl, plus 1 mM MnCl2, 30 C 1 h; mass photometry 25 mM KCl. The following applies: protein: recombinant; tags: Mre11-6xHis; Rad50 untagged; chain copies: 2;2; blunt.

In data set [6] the target is T1, Mre11-Rad50 (MRwt). Kind of data set: EMSA; ATPgS, 5 mM Mg2+, 30 mM NaCl; mean of the 2 visible of 3 replicates (7.787, 6.135); apparent; Oligo EMSA: 25 mM Tris acetate pH 7.5, 1 mM DTT, 0.25 mg/ml BSA, 5 mM Mg acetate, 1 mM ATPgS, 30 mM NaCl, 30 C 15 min, 100 nM bp DNA; plasmid EMSA: 80 mM KCl, plus 1 mM MnCl2, 30 C 1 h; mass photometry 25 mM KCl. The following applies: protein: recombinant; tags: Mre11-6xHis; Rad50 untagged; chain copies: 2;2; label: 3'-32P; blunt before 3' labeling.

Data set [7] concerns the molecule itself. Kind of data set: negative staining TEM; purified complexes without DNA; 25 mM Tris acetate pH 7.5, 1 mM DTT, 120 mM KCl; 4 °C, or 30 °C for 30 min with 5 mM Mg2+, 1 mM Mn2+, 1 mM ATPγS; oligomers stable at 150 mM KCl or NaCl; step: M2R2 to (M2R2)n.
Data set [8] deals with the molecule itself. Kind of data set: negative staining TEM; proteins on linear or circular plasmid DNA, 30 °C 30 min, Mg2+, Mn2+, ATPγS (or ATP), 30-50 mM KCl; 50-100 nM MR; oligomerization on DNA.
Data set [9] concerns the target T1, Mre11-Rad50 (MRwt). Kind of data set: EMSA; ATPgS, 5 mM Mg2+, 30 mM NaCl; mean of the 3 visible of 4 replicates (14.03, 13.92, 12.72); apparent; Oligo EMSA: 25 mM Tris acetate pH 7.5, 1 mM DTT, 0.25 mg/ml BSA, 5 mM Mg acetate, 1 mM ATPgS, 30 mM NaCl, 30 C 15 min, 100 nM bp DNA; plasmid EMSA: 80 mM KCl, plus 1 mM MnCl2, 30 C 1 h; mass photometry 25 mM KCl. The following applies: protein: recombinant; tags: Mre11-6xHis; Rad50 untagged; chain copies: 2;2; label: 3'-32P on strand 1 (terminal transferase); blunt before 3' labeling.

In data set [10] the target is T1, Mre11-Rad50 (MRwt). Kind of data set: EMSA; ATPgS, 5 mM Mg2+, 30 mM NaCl; mean of the 3 visible of 4 replicates (20.5, 22.96, 22.55); apparent; Oligo EMSA: 25 mM Tris acetate pH 7.5, 1 mM DTT, 0.25 mg/ml BSA, 5 mM Mg acetate, 1 mM ATPgS, 30 mM NaCl, 30 C 15 min, 100 nM bp DNA; plasmid EMSA: 80 mM KCl, plus 1 mM MnCl2, 30 C 1 h; mass photometry 25 mM KCl. The following applies: protein: recombinant; tags: Mre11-6xHis; Rad50 untagged; chain copies: 2;2; label: 3'-32P on strand 1 (terminal transferase); blunt before 3' labeling.

Data set [11] deals with MRlo (S. cerevisiae, UniProt P32829;P12753 1-692;1-1312, L116A;I119A;T127A;L128A;Rad50:). Kind of data set: mass photometry; 25 mM KCl, 5 nM protein, 2.5 nM DNA; Oligo EMSA: 25 mM Tris acetate pH 7.5, 1 mM DTT, 0.25 mg/ml BSA, 5 mM Mg acetate, 1 mM ATPgS, 30 mM NaCl, 30 C 15 min, 100 nM bp DNA; plasmid EMSA: 80 mM KCl, plus 1 mM MnCl2, 30 C 1 h; mass photometry 25 mM KCl. The following applies: protein: recombinant; tags: Mre11-6xHis; Rad50 untagged; chain copies: 2;2; 1-nt 5' overhangs as printed.
MRlo, sequence (P32829 whole entry, stated change not applied, one chain of several): as the sequence (P32829 whole entry, one chain of several) above

Numbering of substitutions follows the chain as printed. Names and notes keep the numbering of the source.

T2 sequence (P32829 whole entry, stated change not applied, one chain of several): as the sequence (P32829 whole entry, one chain of several) above

B1: 73 bp mass photometry (dsDNA)
DNA 1: GACCACCCTTTTTGATATAATATACCTATATCAATGGGCTCCCACGCAATTCGGCAGATACGTTCTGAGGGAA
DNA 2: GCCCATTGATATAGGTATATTATATCAAAAAGGGTGGTCTTCCCTCAGAACGTATCTGCCGAATTGCGTGGGA
As for B1, the binding result in [1] and in data set [2] was “binds” each time.

B2: 106 bp mass photometry (dsDNA)
DNA 1: TTAGCTCCTACGCGGAACGAGACCTACCAATATACCTATATCAATGGCCTCCCACGCATAAGCCTCGGGAGCTCGACCATCTGGTCTCATCGGACACTTAGGACCA
DNA 2: TGGTCCTAAGTGTCCGATGAGACCAGATGGTCGAGCTCCCGAGGCTTATGCGTGGGAGGCCATTGATATAGGTATATTGGTAGGTCTCGTTCCGCGTAGGAGCTAA
Consider B2, for which the binding result in [3], in data set [4] (blunt) and in [5] was “binds” throughout.

B3: 70 bp EMSA (PC210/PC211) (dsDNA)
DNA 1: GTAAGTGCCGCGGTGCGGGTGCCAGGGCGTGCCCTTGGGCTCCCCGGGCGCGTACTCCACCTCATGCATC
DNA 2: GATGCATGAGGTGGAGTACGCGCCCGGGGAGCCCAAGGGCACGCCCTGGCACCCGCACCGCGGCACTTAC
modifications: biotin positions marked in table
Consider B3, for which the Kd in [6] is about 6.96 nM.

B4: S. cerevisiae Rad50, wild type, untagged (co-expressed subunit) (natural protein, UniProt P12753 1-1312, looked up)
chain: MSAIYKLSIQGIRSFDSNDRETIEFGKPLTLIVGMNGSGKTTIIECLKYATTGDLPPNSKGGVFIHDPKITGEKDIRAQVKLAFTSANGLNMIVTRNIQLLMKKTTTTFKTLEGQLVAINNSGDRSTLSTRSLELDAQVPLYLGVPKAILEYVIFCHQEDSLWPLSEPSNLKKKFDEIFQAMKFTKALDNLKSIKKDMSVDIKLLKQSVEHLKLDKDRSKAMKLNIHQLQTKIDQYNEEVSEIESQLNEITEKSDKLFKSNQDFQKILSKVENLKNTKLSISDQVKRLSNSIDILDLSKPDLQNLLANFSKVLMDKNNQLRDLETDISSLKDRQSSLQSLSNSLIRRQGELEAGKETYEKNRNHLSSLKEAFQHKFQGLSNIENSDMAQVNHEMSQFKAFISQDLTDTIDQFAKDIQLKETNLSDLIKSITVDSQNLEYNKKDRSKLIHDSEELAEKLKSFKSLSTQDSLNHELENLKTYKEKLQSWESENIIPKLNQKIEEKNNEMIILENQIEKFQDRIMKTNQQADLYAKLGLIKKSINTKLDELQKITEKLQNDSRIRQVFPLTQEFQRADLEMDFQKLFINMQKNIAINNKKMHELDRRYTNALYNLNTIEKDLQDNQKSKEKVIQLLSENLPEDCTIDEYNDVLEETELSYKTALENLKMHQTTLEFNRKALEIAERDSCCYLCSRKFENESFKSKLLQELKTKTDANFEKTLKDTVQNEKEYLHSLRLLEKHIITLNSINEKIDNSQKCLEKAKEETKTSKSKLDELEVDSTKLKDEKELAESEIRPLIEKFTYLEKELKDLENSSKTISEELSIYNTSEDGIQTVDELRDQQRKMNDSLRELRKTISDLQMEKDEKVRENSRMINLIKEKELTVSEIESSLTQKQNIDDSIRSKRENINDIDSRVKELEARIISLKNKKDEAQSVLDKVKNERDIQVRNKQKTVADINRLIDRFQTIYNEVVDFEAKGFDELQTTIKELELNKAQMLELKEQLDLKSNEVNEEKRKLADSNNEEKNLKQNLELIELKSQLQHIESEISRLDVQNAEAERDKYQEESLRLRTRFEKLSSENAGKLGEMKQLQNQIDSLTHQLRTDYKDIEKNYHKEWVELQTRSFVTDDIDVYSKALDSAIMKYHGLKMQDINRIIDELWKRTYSGTDIDTIKIRSDEVSSTVKGKSYNYRVVMYKQDVELDMRGRCSAGQKVLASIIIRLALSETFGANCGVIALDEPTTNLDEENIESLAKSLHNIINMRRHQKNFQLIVITHDEKFLGHMNAAAFTDHFFKVKRDDRQKSQIEWVDINRVTY
notes: Rad50, S. cerevisiae, untagged; also called Rad50^wt; untagged Rad50; source: Sf9, co-expressed with Mre11-6xHis (and FLAG-Xrs2)
As to B4, in data set [7], the binding result is “binds”.

B5: S. cerevisiae Rad50, wild type, expressed and purified alone (natural protein, UniProt P12753 1-1312, looked up)
chain: B4 chain
notes: Rad50, S. cerevisiae; also called Rad50^wt
On to B5, for which the binding result in data set [8] was “binds”.

B6: S. cerevisiae Rad50^N121A/D124N, expressed and purified alone (natural protein, UniProt P12753 1-1312, looked up)
chain: B4 chain with N121A, D124N
notes: Rad50, S. cerevisiae; also called Rad50^ho
Regarding B6, the binding result in data set [8] was “binds”.

B7: 31 bp EMSA (X12-3SC) (dsDNA)
DNA 1: TTGCTAGGACATGCTGTCTAGAGACTATCGC
DNA 2: GCGATAGTCTCTAGACAGCATGTCCTAGCAA
Take B7: in [9], the Kd is about 13.6 nM.

B8: 20 bp EMSA (PC216_20 nt) (dsDNA)
DNA 1: CGTACTCCACCTCATGCATC
DNA 2: GATGCATGAGGTGGAGTACG
modifications: biotin position marked on a T of strand 2 in table
Consider B8, for which the Kd in data set [10] was about 22 nM.

B9: 197 bp mass photometry (dsDNA)
DNA 1: GCTTCGTATGTTTCTCCTGCTTATCACCTTCTTGAAGGCTTCCCATTCATTCAGGAACCGCCTTCTGGTGATTTGCAAGAACGCGTACTTATTCGCCACCATGATTATGACCAGTGTTTCCAGTCCGTTCAGTTGTTGCAGTGGAATAGTCAGGTTAAATTTAATGTGACCGTTTATCGCAATCTGCCGACCACTCG
DNA 2: GCGAGTGGTCGGCAGATTGCGATAAACGGTCACATTAAATTTAACCTGACTATTCCACTGCAACAACTGAACGGACTGGAAACACTGGTCATAATCATGGTGGCGAATAAGTACGCGTTCTTGCAAATCACCAGAAGGCGGTTCCTGAATGAATGGGAAGCCTTCAAGAAGGTGATAAGCAGGAGAAACATACGAAG
For the molecule B9, the binding result in data set [11] is “no binding”; in data set [4] (1-nt 5' overhangs as printed) it was “binds”.
